Assay results: patent publication US7229788

Assays:
[1] = system: SHEL (synthetic human elastin; recombinant human tropoelastin splice form)
[2] = system: SHELδ26A (SHEL lacking the sequence of exon 26A)
[3] = system: serine protease site peptide (SPS-peptide), N-AAKAQLRAAAGLGA-C
[4] = system: GST-SHEL (glutathione S-transferase fusion of SHEL)
GST-SHEL (glutathione S-transferase fusion of SHEL), sequence (chain, as listed by the source): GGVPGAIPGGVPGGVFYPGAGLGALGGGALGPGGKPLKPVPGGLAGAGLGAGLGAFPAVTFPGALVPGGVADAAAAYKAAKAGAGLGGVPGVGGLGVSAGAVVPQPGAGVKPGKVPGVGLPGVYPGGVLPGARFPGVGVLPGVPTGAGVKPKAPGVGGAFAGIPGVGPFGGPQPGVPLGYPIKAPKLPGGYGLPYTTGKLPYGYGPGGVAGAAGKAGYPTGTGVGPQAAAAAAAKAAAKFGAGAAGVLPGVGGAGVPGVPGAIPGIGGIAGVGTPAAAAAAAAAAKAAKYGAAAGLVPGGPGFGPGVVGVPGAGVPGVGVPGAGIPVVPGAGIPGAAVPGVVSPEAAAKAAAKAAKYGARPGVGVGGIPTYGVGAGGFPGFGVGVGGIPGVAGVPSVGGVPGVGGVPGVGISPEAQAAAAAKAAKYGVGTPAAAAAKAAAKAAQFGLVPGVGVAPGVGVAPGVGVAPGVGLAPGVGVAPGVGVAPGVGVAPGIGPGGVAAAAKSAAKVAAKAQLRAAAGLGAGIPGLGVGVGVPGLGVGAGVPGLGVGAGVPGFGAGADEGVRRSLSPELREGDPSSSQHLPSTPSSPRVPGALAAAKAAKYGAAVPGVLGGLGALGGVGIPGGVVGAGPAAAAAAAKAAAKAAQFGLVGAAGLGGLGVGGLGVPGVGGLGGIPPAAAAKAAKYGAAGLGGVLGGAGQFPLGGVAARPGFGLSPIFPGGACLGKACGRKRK

human plasma kallikrein (Sigma), sequence (chain, as listed by the source): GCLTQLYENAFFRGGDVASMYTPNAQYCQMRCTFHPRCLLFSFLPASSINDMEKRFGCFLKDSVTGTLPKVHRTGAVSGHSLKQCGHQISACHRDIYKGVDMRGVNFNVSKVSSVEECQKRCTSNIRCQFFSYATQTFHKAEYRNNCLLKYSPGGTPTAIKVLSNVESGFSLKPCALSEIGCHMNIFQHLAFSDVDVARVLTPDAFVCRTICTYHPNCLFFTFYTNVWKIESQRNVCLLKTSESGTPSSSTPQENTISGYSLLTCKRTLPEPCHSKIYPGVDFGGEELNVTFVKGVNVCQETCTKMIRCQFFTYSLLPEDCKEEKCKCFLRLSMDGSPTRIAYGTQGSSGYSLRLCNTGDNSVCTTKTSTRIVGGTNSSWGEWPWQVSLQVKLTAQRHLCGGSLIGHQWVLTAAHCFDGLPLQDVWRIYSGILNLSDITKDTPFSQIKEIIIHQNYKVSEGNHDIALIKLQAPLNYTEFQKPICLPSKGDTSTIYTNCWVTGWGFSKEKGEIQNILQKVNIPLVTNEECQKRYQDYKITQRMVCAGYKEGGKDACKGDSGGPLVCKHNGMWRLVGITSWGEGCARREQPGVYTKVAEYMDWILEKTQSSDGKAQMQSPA
SHELδ26A (SHEL lacking the sequence of exon 26A), sequence (chain, as listed by the source mutant): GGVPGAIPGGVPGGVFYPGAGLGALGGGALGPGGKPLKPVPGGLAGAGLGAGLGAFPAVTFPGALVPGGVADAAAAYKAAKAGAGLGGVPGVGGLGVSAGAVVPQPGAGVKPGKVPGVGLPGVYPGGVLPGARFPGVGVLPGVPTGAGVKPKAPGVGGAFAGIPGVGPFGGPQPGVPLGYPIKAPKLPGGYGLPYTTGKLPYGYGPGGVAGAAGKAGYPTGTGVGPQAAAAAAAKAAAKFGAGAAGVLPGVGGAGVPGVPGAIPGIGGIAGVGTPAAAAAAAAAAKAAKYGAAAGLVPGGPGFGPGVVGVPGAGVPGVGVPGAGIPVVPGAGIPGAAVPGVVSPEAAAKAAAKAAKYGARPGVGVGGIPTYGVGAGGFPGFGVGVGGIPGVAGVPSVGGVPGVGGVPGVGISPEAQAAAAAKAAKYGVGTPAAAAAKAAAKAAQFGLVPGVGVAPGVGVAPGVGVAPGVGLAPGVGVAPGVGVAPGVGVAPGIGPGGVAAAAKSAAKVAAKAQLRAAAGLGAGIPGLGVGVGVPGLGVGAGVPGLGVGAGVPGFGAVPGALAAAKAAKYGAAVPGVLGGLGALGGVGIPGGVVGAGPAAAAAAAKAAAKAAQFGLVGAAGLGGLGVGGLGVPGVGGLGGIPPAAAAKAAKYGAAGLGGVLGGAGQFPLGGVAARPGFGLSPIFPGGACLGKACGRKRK
SHEL (synthetic human elastin; recombinant human tropoelastin splice form), sequence (chain, as listed by the source): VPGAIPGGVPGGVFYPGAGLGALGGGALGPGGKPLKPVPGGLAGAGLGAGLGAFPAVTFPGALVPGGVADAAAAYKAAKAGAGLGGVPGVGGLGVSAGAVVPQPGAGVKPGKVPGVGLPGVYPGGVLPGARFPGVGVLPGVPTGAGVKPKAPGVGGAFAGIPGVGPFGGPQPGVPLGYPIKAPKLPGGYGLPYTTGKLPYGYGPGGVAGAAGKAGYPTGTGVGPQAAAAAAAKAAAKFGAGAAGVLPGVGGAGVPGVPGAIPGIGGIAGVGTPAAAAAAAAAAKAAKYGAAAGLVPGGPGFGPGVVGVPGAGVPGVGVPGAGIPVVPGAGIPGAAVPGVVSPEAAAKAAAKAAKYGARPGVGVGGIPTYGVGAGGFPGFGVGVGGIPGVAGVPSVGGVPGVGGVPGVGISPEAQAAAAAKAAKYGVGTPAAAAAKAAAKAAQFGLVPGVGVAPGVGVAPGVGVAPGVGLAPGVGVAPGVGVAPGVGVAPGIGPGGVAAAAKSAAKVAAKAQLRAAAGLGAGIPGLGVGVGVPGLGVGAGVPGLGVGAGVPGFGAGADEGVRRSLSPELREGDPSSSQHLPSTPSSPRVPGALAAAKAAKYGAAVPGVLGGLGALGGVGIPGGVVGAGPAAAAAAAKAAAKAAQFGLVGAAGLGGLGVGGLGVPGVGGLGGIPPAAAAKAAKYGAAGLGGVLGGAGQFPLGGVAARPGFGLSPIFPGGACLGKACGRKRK

## human plasma kallikrein (Sigma)
[1]
  degradation of SHEL by human plasma kallikrein, SDS-PAGE: Three major fragments were identified by SDS-PAGE (FIG. 8) estimated to be 45, 22 and 18 kDa
[2]
  degradation of SHELδ26A by human plasma kallikrein, SDS-PAGE: The pattern of degradation of SHELδ26A was somewhat different, with the 22 and 18 kDa fragments missing and replaced by a 15 kDa fragment
[3]
  amount of full-length SHEL after kallikrein digestion with a 100:1 molar excess of SPS-peptide, SDS-PAGE and densitometry (also seen with SHELδ26A, not shown): more full-length SHEL was evident compared with controls using trypsin, plasmin, kallikrein and serum

## human thrombin (Sigma)
[4]
  cleavage of GST-SHEL by thrombin, SDS-PAGE: Thrombin is able to cleave GST-SHEL extensively and in a reproducible manner
[1]
  degradation of SHEL by thrombin, SDS-PAGE: four major fragments were identified by SDS-PAGE estimated at 45, 34, 22 and 13 kDa
[2]
  degradation of SHELδ26A by thrombin, SDS-PAGE: The patterns of degradation seen with SHELδ26A was slightly different with the 22 kDa fragment reduced in size to about 15 kDa
[3]
  amount of full-length SHEL after thrombin digestion with SPS-peptide, SDS-PAGE and densitometry: SPS-peptide also resulted in more full-length SHEL using thrombin and HLE but to a lesser extent
